# Laboratory results: IntAct's records for PubMed 22908257
# Biological target: ABI2, O04719-1
# Sequence (O04719 whole entry): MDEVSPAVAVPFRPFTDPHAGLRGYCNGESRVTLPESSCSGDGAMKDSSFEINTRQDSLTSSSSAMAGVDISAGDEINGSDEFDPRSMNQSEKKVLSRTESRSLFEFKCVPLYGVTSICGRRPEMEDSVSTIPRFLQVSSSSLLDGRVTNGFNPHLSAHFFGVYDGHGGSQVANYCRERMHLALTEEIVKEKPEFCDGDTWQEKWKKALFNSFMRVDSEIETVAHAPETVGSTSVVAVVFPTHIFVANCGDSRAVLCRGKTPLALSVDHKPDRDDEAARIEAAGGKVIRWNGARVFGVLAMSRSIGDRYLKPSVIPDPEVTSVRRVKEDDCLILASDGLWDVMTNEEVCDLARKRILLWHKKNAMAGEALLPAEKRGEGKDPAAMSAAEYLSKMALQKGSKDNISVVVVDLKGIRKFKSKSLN
# Chain of Rac-like GTP-binding protein ARAC10 (Arabidopsis thaliana (Mouse-ear cress)), O82481 D123A (O82481 whole entry D123A): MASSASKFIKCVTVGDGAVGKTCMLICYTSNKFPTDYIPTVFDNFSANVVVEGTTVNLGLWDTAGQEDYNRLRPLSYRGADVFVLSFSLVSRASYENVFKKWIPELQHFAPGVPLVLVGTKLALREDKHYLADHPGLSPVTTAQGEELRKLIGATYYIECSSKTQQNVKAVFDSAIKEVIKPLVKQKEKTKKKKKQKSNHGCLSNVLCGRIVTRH
substance,measurement,value
"Rac-like GTP-binding protein ARAC10 (Arabidopsis thaliana (Mouse-ear cress)), O82481 D123A",effect of a mutation on the interaction,disrupting interaction strength
